Measurements reported in the supplement of paper PMC10567573.

B1: MFF (parent)
chain: DDLTVVDAASLRRQIIKLNRRLQL
B2: TRIM63 (parent)
chain: QEKKLSFIEALIQQYQEQLDKSTK
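Further: lentivirally expressed fusions sorted by FACS into six bins by GFP to DsRed ratio, PSI derived from sequencing read proportions per bin multiplied by bin number.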

Variants of: B1
Assay: protein stability index of a GFP-peptide fusion (GPS, HEK-293T) (PSI 1-6); higher = more stable
Conditions: c terminus: a fixed tail appended
DDLRVVDAASLRRQIIKLNRRLQL [T4R] showed a protein stability index of 2.18. Variant DDLHVVDAASLRRQIIKLNRRLQL [T4H] has a protein stability index of 1.7. For DDLAVVDAASLRRQIIKLNRRLQL [T4A], the protein stability index was 1.91. DDLQVVDAASLRRQIIKLNRRLQL [T4Q] showed a protein stability index of 2.32. In the case of DDLIVVDAASLRRQIIKLNRRLQL [T4I], the protein stability index is reported as 2.2. Variant DDLLVVDAASLRRQIIKLNRRLQL [T4L] has a protein stability index of 2.62. DDLPVVDAASLRRQIIKLNRRLQL [T4P] gave a protein stability index of 1.56. DDLEVVDAASLRRQIIKLNRRLQL [T4E] showed a protein stability index of 2.21. For DDLCVVDAASLRRQIIKLNRRLQL [T4C], the protein stability index was 1.86. With DDLDVVDAASLRRQIIKLNRRLQL [T4D] the protein stability index was 2.6. For DDLNVVDAASLRRQIIKLNRRLQL [T4N], the protein stability index was 2.3. DDLFVVDAASLRRQIIKLNRRLQL [T4F] showed a protein stability index of 2.08. Work on DDLVVVDAASLRRQIIKLNRRLQL [T4V] yielded a protein stability index of 1.96. In the case of DDLKVVDAASLRRQIIKLNRRLQL [T4K], the protein stability index is reported as 2.15. With DDLSVVDAASLRRQIIKLNRRLQL [T4S] the protein stability index was 2.43. For DDLMVVDAASLRRQIIKLNRRLQL [T4M], the protein stability index was 2.24. Variant DDLYVVDAASLRRQIIKLNRRLQL [T4Y] has a protein stability index of 1.43. With EDLTVVDAASLRRQIIKLNRRLQL [D1E] the protein stability index was 1.67. Work on KDLTVVDAASLRRQIIKLNRRLQL [D1K] yielded a protein stability index of 1.84. LDLTVVDAASLRRQIIKLNRRLQL [D1L] showed a protein stability index of 1.61. HDLTVVDAASLRRQIIKLNRRLQL [D1H] showed a protein stability index of 1.84. In the case of FDLTVVDAASLRRQIIKLNRRLQL [D1F], the protein stability index is reported as 2.42. With WDLTVVDAASLRRQIIKLNRRLQL [D1W] the protein stability index was 1.88. For YDLTVVDAASLRRQIIKLNRRLQL [D1Y], the protein stability index was 2.81. Work on CDLTVVDAASLRRQIIKLNRRLQL [D1C] yielded a protein stability index of 2.04. With VDLTVVDAASLRRQIIKLNRRLQL [D1V] the protein stability index was 2.39. For SDLTVVDAASLRRQIIKLNRRLQL [D1S], the protein stability index was 2.28. Variant QDLTVVDAASLRRQIIKLNRRLQL [D1Q] has a protein stability index of 3.2. In the case of IDLTVVDAASLRRQIIKLNRRLQL [D1I], the protein stability index is reported as 2.32. Variant NDLTVVDAASLRRQIIKLNRRLQL [D1N] has a protein stability index of 2.1. In the case of ADLTVVDAASLRRQIIKLNRRLQL [D1A], the protein stability index is reported as 2.08. GDLTVVDAASLRRQIIKLNRRLQL [D1G] gave a protein stability index of 2.17. In the case of PDLTVVDAASLRRQIIKLNRRLQL [D1P], the protein stability index is reported as 2.05. Variant RDLTVVDAASLRRQIIKLNRRLQL [D1R] has a protein stability index of 2.45. Variant TDLTVVDAASLRRQIIKLNRRLQL [D1T] has a protein stability index of 1.78. Variant MDLTVVDAASLRRQIIKLNRRLQL [D1M] has a protein stability index of 1.98. Variant DDKTVVDAASLRRQIIKLNRRLQL [L3K] has a protein stability index of 2.34. In the case of DDWTVVDAASLRRQIIKLNRRLQL [L3W], the protein stability index is reported as 1.48. Variant DDDTVVDAASLRRQIIKLNRRLQL [L3D] has a protein stability index of 2.58. Work on DDPTVVDAASLRRQIIKLNRRLQL [L3P] yielded a protein stability index of 2.48. DDHTVVDAASLRRQIIKLNRRLQL [L3H] showed a protein stability index of 2.73. DDMTVVDAASLRRQIIKLNRRLQL [L3M] gave a protein stability index of 3.06. In the case of DDVTVVDAASLRRQIIKLNRRLQL [L3V], the protein stability index is reported as 2.8. In the case of DDTTVVDAASLRRQIIKLNRRLQL [L3T], the protein stability index is reported as 2.2. DDITVVDAASLRRQIIKLNRRLQL [L3I] gave a protein stability index of 1.8. DDETVVDAASLRRQIIKLNRRLQL [L3E] showed a protein stability index of 2.56. In the case of DDYTVVDAASLRRQIIKLNRRLQL [L3Y], the protein stability index is reported as 1.96. Work on DDRTVVDAASLRRQIIKLNRRLQL [L3R] yielded a protein stability index of 2.58. In the case of DDSTVVDAASLRRQIIKLNRRLQL [L3S], the protein stability index is reported as 2.57. DDQTVVDAASLRRQIIKLNRRLQL [L3Q] gave a protein stability index of 2.45. Variant DDNTVVDAASLRRQIIKLNRRLQL [L3N] has a protein stability index of 2.09. For DDATVVDAASLRRQIIKLNRRLQL [L3A], the protein stability index was 2.59. DDCTVVDAASLRRQIIKLNRRLQL [L3C] gave a protein stability index of 2.33. DDGTVVDAASLRRQIIKLNRRLQL [L3G] gave a protein stability index of 2.58. Variant DDFTVVDAASLRRQIIKLNRRLQL [L3F] has a protein stability index of 2.73. With DELTVVDAASLRRQIIKLNRRLQL [D2E] the protein stability index was 1.72. DLLTVVDAASLRRQIIKLNRRLQL [D2L] showed a protein stability index of 1.24. Variant DALTVVDAASLRRQIIKLNRRLQL [D2A] has a protein stability index of 2.37. DYLTVVDAASLRRQIIKLNRRLQL [D2Y] showed a protein stability index of 2. Variant DGLTVVDAASLRRQIIKLNRRLQL [D2G] has a protein stability index of 2.56. Variant DQLTVVDAASLRRQIIKLNRRLQL [D2Q] has a protein stability index of 2.32. For DWLTVVDAASLRRQIIKLNRRLQL [D2W], the protein stability index was 2.86. DTLTVVDAASLRRQIIKLNRRLQL [D2T] showed a protein stability index of 2.31. DSLTVVDAASLRRQIIKLNRRLQL [D2S] showed a protein stability index of 2.24. In the case of DCLTVVDAASLRRQIIKLNRRLQL [D2C], the protein stability index is reported as 2.73. DHLTVVDAASLRRQIIKLNRRLQL [D2H] showed a protein stability index of 2.02. With DVLTVVDAASLRRQIIKLNRRLQL [D2V] the protein stability index was 1.13. DKLTVVDAASLRRQIIKLNRRLQL [D2K] showed a protein stability index of 2.3. DMLTVVDAASLRRQIIKLNRRLQL [D2M] showed a protein stability index of 2.09. For DRLTVVDAASLRRQIIKLNRRLQL [D2R], the protein stability index was 1.82. For DNLTVVDAASLRRQIIKLNRRLQL [D2N], the protein stability index was 2.22. Variant DPLTVVDAASLRRQIIKLNRRLQL [D2P] has a protein stability index of 2.45. With DFLTVVDAASLRRQIIKLNRRLQL [D2F] the protein stability index was 2.48. Work on DILTVVDAASLRRQIIKLNRRLQL [D2I] yielded a protein stability index of 1.85.

Variants of: B2
Assay: as above
Conditions: c terminus: a fixed tail appended
In the case of QEKKLSFIEALIQQYQEQLDKSTW [K24W], the protein stability index is reported as 1.67. Variant QEKKLSFIEALIQQYQEQLDKSTN [K24N] has a protein stability index of 2.79. With QEKKLSFIEALIQQYQEQLDKSTM [K24M] the protein stability index was 2.32. In the case of QEKKLSFIEALIQQYQEQLDKSTE [K24E], the protein stability index is reported as 3.51. For QEKKLSFIEALIQQYQEQLDKSTL [K24L], the protein stability index was 2.47. QEKKLSFIEALIQQYQEQLDKSTH [K24H] showed a protein stability index of 2.95. In the case of QEKKLSFIEALIQQYQEQLDKSTS [K24S], the protein stability index is reported as 2.61. With QEKKLSFIEALIQQYQEQLDKSTQ [K24Q] the protein stability index was 2.68. With QEKKLSFIEALIQQYQEQLDKSTY [K24Y] the protein stability index was 1.36. For QEKKLSFIEALIQQYQEQLDKSTR [K24R], the protein stability index was 1.84. For QEKKLSFIEALIQQYQEQLDKSTP [K24P], the protein stability index was 3.33. With QEKKLSFIEALIQQYQEQLDKSTA [K24A] the protein stability index was 2.25. QEKKLSFIEALIQQYQEQLDKSTV [K24V] gave a protein stability index of 2.31. In the case of QEKKLSFIEALIQQYQEQLDKSTF [K24F], the protein stability index is reported as 1.71. Work on QEKKLSFIEALIQQYQEQLDKSTC [K24C] yielded a protein stability index of 2.99. QEKKLSFIEALIQQYQEQLDKSTD [K24D] showed a protein stability index of 3.66. For QEKKLSFIEALIQQYQEQLDKSTG [K24G], the protein stability index was 2.71. With QEKKLSFIEALIQQYQEQLDKSTT [K24T] the protein stability index was 2.67. In the case of QEKKLSFIEALIQQYQEQLDKSTI [K24I], the protein stability index is reported as 1.95. Work on QEKKLSFIEALIQQYQEQLDKMTK [S22M] yielded a protein stability index of 2.65.
